Reference: patent US20180049457A1, “ENZYMATIC SYNTHESIS OF SOLUBLE GLUCAN FIBER” (E I DU PONT DE NEMOURS AND COMPANY, priority 2014, published 2018)

Test: GTF activity of strains (PAHBAH assay)
Assay type: biochemical
Conditions: Experiment Number 1; enzyme expressed in B. subtilis host
Summary of the method: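 Glucosyltransferase (GTF) activity of the bacterial strains was measured with the PAHBAH assay. The enzymes tested were truncated GTF variants produced in a Bacillus subtilis expression host. Measurements were split across three separate experiments, and each activity value is reported together with the experiment it came from because results varied slightly between experiments.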

Molecule | GTF activity of strains: Acitivity
GTF4991T1: T1 C-terminal truncation of GTF4991, SEQ ID NO: 148, strain SG1310 (protein, T1 C-terminal truncation of GTF4491) INGKQYYVNSDGSVRKNFVFEQDGKSYYFDAETGALATKSQDEFSTEPIKATVDFSSGNQLYKNDDKSLDQLDTFITADAWYRPKSILKDGKTWTASTEADKRPLLMVWWPDKSTQVNYLNYMQNQGLGAGSFSTNSSQESLDQAAKAVQTKIEERIAREGNTNWLRTSIDQFIKTQPGWNSSTENSSYDHLQGGQLLFNNSKGDTGNRTSHANSDYRLLNRTPTNQTGTRKYFKDNSIGGLEFLLANDIDNSNPAVQAEQLNWLHFMMNIGSIMANDPTANFDGLRVDALDNVDADLLQIASDYFKAAYGVDKSEANAIKHLSYLEAWSANDPYYNKDTKGAQLPIDNALRNALTNLLMRDKNTRMQLGDMTAFINSSLNPRGANDKNGERMANYIFTRAHDTEAQTIIQRIIRDRINPNLFGYNFTRDEIKKAFEIYNEDIDKAHKTYASYNLPSVYALMLTNKDSVTRVYYGDLYREDGHYMAKKTPYFDAIDTLLRARIKYVAGGQDMEVKKVGNDGLLTSVRYGKGANNRTDLGTSETRTQGMGVIMTNNYDFRLGSNETVTMNMGRAHRNQLYRPLLLTTKDGIATYLNDSDVPKNLLKRTDWNGNLTFNANDVFGVENVQVSGYLGVWVPYGAKANQDARTQPSNRANSDGQVYKSSAALDSQVMYEAFSNFQAFADDQPELYMNRVLAKNTDLLKAWGITSVGLPPQYVSSKDGTFLDSIIDNGYAFDDRYDMALSQNNKYGSLEDLLNVLRALHKDGIQAIADWVPDQIYNLPGKEVVNATRVNGYGYHQQGYQIVDQAYVANTRTDGTDYQGKYGGAFLDELKAKYPSIFNRVQISNGKQLPTNEKITKWSAKYFNGTNILGRGINFVLRDDKTNQYFNTSANSQLLPTPLRDTGAIT | 23.1 U/mL
GTF4991T6: T6 C-terminal truncation of GTF4991, SEQ ID NO: 152, strain SG1312 (protein, T6 C-terminal truncation of GTF4491) INGKQYYVNSDGSVRKNFVFEQDGKSYYFDAETGALATKSQDEFSTEPIKATVDFSSGNQLYKNDDKSLDQLDTFITADAWYRPKSILKDGKTWTASTEADKRPLLMVWWPDKSTQVNYLNYMQNQGLGAGSFSTNSSQESLDQAAKAVQTKIEERIAREGNTNWLRTSIDQFIKTQPGWNSSTENSSYDHLQGGQLLFNNSKGDTGNRTSHANSDYRLLNRTPTNQTGTRKYFKDNSIGGLEFLLANDIDNSNPAVQAEQLNWLHFMMNIGSIMANDPTANFDGLRVDALDNVDADLLQIASDYFKAAYGVDKSEANAIKHLSYLEAWSANDPYYNKDTKGAQLPIDNALRNALTNLLMRDKNTRMQLGDMTAFINSSLNPRGANDKNGERMANYIFTRAHDTEAQTIIQRIIRDRINPNLFGYNFTRDEIKKAFEIYNEDIDKAHKTYASYNLPSVYALMLTNKDSVTRVYYGDLYREDGHYMAKKTPYFDAIDTLLRARIKYVAGGQDMEVKKVGNDGLLTSVRYGKGANNRTDLGTSETRTQGMGVIMTNNYDFRLGSNETVTMNMGRAHRNQLYRPLLLTTKDGIATYLNDSDVPKNLLKRTDWNGNLTFNANDVFGVENVQVSGYLGVWVPYGAKANQDARTQPSNRANSDGQVYKSSAALDSQVMYEAFSNFQAFADDQPELYMNRVLAKNTDLLKAWGITSVGLPPQYVSSKDGTFLDSIIDNGYAFDDRYDMALSQNNKYGSLEDLLNVLRALHKDGIQAIADWVPDQIYNLPGKEVVNATRVNGYGYHQQGYQIVDQAYVANTRTDGTDYQGKYGGAFLDELKAKYPSIFNRVQISNGKQLPTNEKITKWSAKYFNGTNILGRGINFVLRDDKTNQYFNTSANSQLLPTPLRDTGAITSTQVFQRRGQDVYFLRDNQTVKNEFVQDGNGNWYYFGGDGKMTKGAQNINSKDYYFFDNGVQLRNALRRASNGYTYYYGLDGAMVKNAFVDFDDKHKQVRAFTTQG | 1.7 U/mL
GTF4336T6: T6 C-terminal truncation of GTF4336, SEQ ID NO: 146, strain SG1309 (protein, T6 C-terminal truncation of GTF4336) INGKQYYVNSDGSVRKNFVFEQDGKSYYFDAETGALATKSQDEFSTEPIKATVDFSSGNQLYKNDDKSLDQLDTFITADAWYRPKSILKDGKTWTASTEADKRPLLMVWWPDKSTQVNYLNYMQNQGLGAGSFSTNSSQESLDQAAKAVQTKIEERIAREGNTNWLRTSIDQFIKTQPGWNSSTENSSYDHLQGGQLLFNNSKGDTGNRTSHANSDYRLLNRTPTNQTGTRKYFKDNSIGGLEFLLANDIDNSNPAVQAEQLNWLHFMMNIGSIMANDPTANFDGLRVDALDNVDADLLQIASDYFKAAYGVDKSEANAIKHLSYLEAWSANDPYYNKDTKGAQLPIDNALRNALTNLLMRDKNTRMQLGDMTAFINSSLNPRGANDKNGERMANYIFTRAHDTEAQTIIQRIIRDRINPNLFGYNFTRDEIKKAFEIYNEDIDKAHKTYASYNLPSVYALMLTNKDSVTRVYYGDLYREDGHYMAKKTPYFDAIDTLLRARIKYVAGGQDMEVKKVGNDGLLTSVRYGKGANNRTDLGTSETRTQGMGVIMTNNYDFRLGSNETVTMNMGRAHRNQLYRPLLLTTKDGIATYFNDSDVPKNLLKRTDWNGNLTFNANDVFGVENVQVSGYLGVWVPVGAKANQDARTQPSNRANSDGQVYKSSAALDSQVMYEAFSNFQAFADDQPELYMNRVLAKNTDLLKAWGVTSVGLPPQYVSSKDGTFLDSTIDNGYAFDDRYDMALSQNNKYGSLEDLLNVLRALHKDGIQAIADWVPDQIYNLPGKEVVNATRVNGYGYHQQGYQIVDQAYVANTRTDGTDYQGKYGGAFLDELKAKYPSIFNRVQISNGKQLPTNEKITKWSAKYFNGTNILGRGINYVLRDDKTNQYFNTSANSQLLPTPLRDTGAITSTQVFQRRGQDVYFLRDNQAVKNEFVQDGNGNWYYFGADGKMTKGAQTINKKDYYFFDNGIQLRNALRRANNGYTYYYGLDGAMVKNAFVDFDDKRKQVRAFTTQG | 28.9 U/mL
GTF4336T2: T2 C-terminal truncation of GTF4336, SEQ ID NO: 144, strain SG1308 (protein, T2 C-terminal truncation of GTF4336) INGKQYYVNSDGSVRKNFVFEQDGKSYYFDAETGALATKSQDEFSTEPIKATVDFSSGNQLYKNDDKSLDQLDTFITADAWYRPKSILKDGKTWTASTEADKRPLLMVWWPDKSTQVNYLNYMQNQGLGAGSFSTNSSQESLDQAAKAVQTKIEERIAREGNTNWLRTSIDQFIKTQPGWNSSTENSSYDHLQGGQLLFNNSKGDTGNRTSHANSDYRLLNRTPTNQTGTRKYFKDNSIGGLEFLLANDIDNSNPAVQAEQLNWLHFMMNIGSIMANDPTANFDGLRVDALDNVDADLLQIASDYFKAAYGVDKSEANAIKHLSYLEAWSANDPYYNKDTKGAQLPIDNALRNALTNLLMRDKNTRMQLGDMTAFINSSLNPRGANDKNGERMANYIFTRAHDTEAQTIIQRIIRDRINPNLFGYNFTRDEIKKAFEIYNEDIDKAHKTYASYNLPSVYALMLTNKDSVTRVYYGDLYREDGHYMAKKTPYFDAIDTLLRARIKYVAGGQDMEVKKVGNDGLLTSVRYGKGANNRTDLGTSETRTQGMGVIMTNNYDFRLGSNETVTMNMGRAHRNQLYRPLLLTTKDGIATYFNDSDVPKNLLKRTDWNGNLTFNANDVFGVENVQVSGYLGVWVPVGAKANQDARTQPSNRANSDGQVYKSSAALDSQVMYEAFSNFQAFADDQPELYMNRVLAKNTDLLKAWGVTSVGLPPQYVSSKDGTFLDSTIDNGYAFDDRYDMALSQNNKYGSLEDLLNVLRALHKDGIQAIADWVPDQIYNLPGKEVVNATRVNGYGYHQQGYQIVDQAYVANTRTDGTDYQGKYGGAFLDELKAKYPSIFNRVQISNGKQLPTNEKITKWSAKYFNGTNILGRGINYVLRDDKTNQYFNTSANSQLLPTPLRDTGAITSTQVFQRRGQDVYFLRDNQAVKNEFVQDGNGNWYYFGADG | 11.5 U/mL
GTF4991T2: T2 C-terminal truncation of GTF4991, SEQ ID NO: 150, strain SG1311 (protein, T2 C-terminal truncation of GTF4491) INGKQYYVNSDGSVRKNFVFEQDGKSYYFDAETGALATKSQDEFSTEPIKATVDFSSGNQLYKNDDKSLDQLDTFITADAWYRPKSILKDGKTWTASTEADKRPLLMVWWPDKSTQVNYLNYMQNQGLGAGSFSTNSSQESLDQAAKAVQTKIEERIAREGNTNWLRTSIDQFIKTQPGWNSSTENSSYDHLQGGQLLFNNSKGDTGNRTSHANSDYRLLNRTPTNQTGTRKYFKDNSIGGLEFLLANDIDNSNPAVQAEQLNWLHFMMNIGSIMANDPTANFDGLRVDALDNVDADLLQIASDYFKAAYGVDKSEANAIKHLSYLEAWSANDPYYNKDTKGAQLPIDNALRNALTNLLMRDKNTRMQLGDMTAFINSSLNPRGANDKNGERMANYIFTRAHDTEAQTIIQRIIRDRINPNLFGYNFTRDEIKKAFEIYNEDIDKAHKTYASYNLPSVYALMLTNKDSVTRVYYGDLYREDGHYMAKKTPYFDAIDTLLRARIKYVAGGQDMEVKKVGNDGLLTSVRYGKGANNRTDLGTSETRTQGMGVIMTNNYDFRLGSNETVTMNMGRAHRNQLYRPLLLTTKDGIATYLNDSDVPKNLLKRTDWNGNLTFNANDVFGVENVQVSGYLGVWVPYGAKANQDARTQPSNRANSDGQVYKSSAALDSQVMYEAFSNFQAFADDQPELYMNRVLAKNTDLLKAWGITSVGLPPQYVSSKDGTFLDSIIDNGYAFDDRYDMALSQNNKYGSLEDLLNVLRALHKDGIQAIADWVPDQIYNLPGKEVVNATRVNGYGYHQQGYQIVDQAYVANTRTDGTDYQGKYGGAFLDELKAKYPSIFNRVQISNGKQLPTNEKITKWSAKYFNGTNILGRGINFVLRDDKTNQYFNTSANSQLLPTPLRDTGAITSTQVFQRRGQDVYFLRDNQTVKNEFVQDGNGNWYYFGGDG | 4.9 U/mL
